Data published in article PMC5293257.

Tests used:
[1] = target: fibronectin (human (endogenous in dHL-60)) (UniProt P02751)
[2] = target: fibronectin (human (endogenous in dHL-60)) (UniProt P02751); remark: listed apart in the source

integrin α5β1 (from UniProt P08648 42-1049; P05556 21-798) (receptor)
adhesion of K562 cells to NETs coated plates (NETs from dHL-60 stimulated with 10% FBS), percentage of adherent cells [1]: 59% | adhesion of K562 cells to NETs coated plates with anti-α5β1 blocking antibody (P1D6), percentage of adherent cells [1]: 24% | adhesion of K562 cells to NETs coated plates (NETs from dHL-60 stimulated in serum free conditions), percentage of adherent cells [2]: 62% | adhesion of K562 cells to NETs coated plates (serum free NETs) with anti-integrin blocking Ab, percentage of adherent cells [2]: 10%
